B1: phosphorylated Smad2 (pSmad2) (other, UniProt Q62432 2-467, looked up)
chain: SSILPFTPPVVKRLLGWKKSAGGSGGAGGGEQNGQEEKWCEKAVKSLVKKLKKTGRLDELEKAITTQNCNTKCVTIPSTCSEIWGLSTANTVDQWDTTGLYSFSEQTRSLDGRLQVSHRKGLPHVIYCRLWRWPDLHSHHELKAIENCEYAFNLKKDEVCVNPYHYQRVETPVLPPVLVPRHTEILTELPPLDDYTHSIPENTNFPAGIEPQSNYIPETPPPGYISEDGETSDQQLNQSMDTGSPAELSPTTLSPVNHSLDLQPVTYSEPAFWCSIAYYELNQRVGETFHASQPSLTVDGFTDPSNSERFCLGLLSNVNRNATVEMTRRHIGRGVRLYYIGGEVFAECLSDSAIFVQSPNCNQRYGWHPATVCKIPPGCNLKIFNNQEFAALLAQSVNQGFEAVYQLTRMCTIRMSFVKGWGAEYRRQTVTSTPCWIELHLNGPLQWLDKVLTQMGSPSVRCSSMS
modifications: phosphorylated (sites not given)
notes: Endogenous protein from AKR-2B cell lysate, detected by Western blot with a phospho-Smad2 specific antibody

Legend:
[1] = biological target: T1, GST full length (FL) SNX9 (UniProt Q9Y5X1 1-595); assay: GST pull-down from AKR-2B lysate, Western blot
T1 construct: GST fusion used in pull-down; also called GST-FL SNX9; not shown: glutathione S-transferase (GST) tag

[2] = biological target: B1; assay: GST pull-down from AKR-2B lysate, Western blot
Protocol: (§1) Lysates from AKR-2B cells untreated (−) or stimulated (+) for 45 minutes with 5 ng/mL TGFβ were incubated with GST beads or the indicated fusion polypeptides immobilized on GST beads. Bound polypeptides were eluted and assessed by Western analysis for pSmad3 or pSmad2. Cell lysate reflects signal obtained from 10 μg total protein. (B) AKR-2B cells were transduced for 90 minutes with the indicated concentrations of the TAT-SNX9(SH3) fusion polypeptides. Following washing and 1 hour TGFβ (5 ng/mL) treatment, nuclear fractions were isolated, and Western blotted for pSmad2, pSmad3, or histone deacetylase 1 (HDAC) (Left). Quantitation of nuclear pSmads was performed with Image J software and represents the mean+/−sd of two experiments (Right). […] Immunofluorescence for Smad3 or the HA-tagged TAT-SNX9(SH3) fusion polypeptide was performed, and nuclei were stained with DAPI (Left panels). Quantitation of nuclear Smad3 from 30 cells in each of two experiments (Right).
(§2) To assess SNX9 binding to GST or His constructs, cells were incubated in the presence or absence of 5 ng/mL TGFβ for 45 minutes. Following RIPA buffer lysis, 500 μg of protein was precleared with GST Resin or TALON Metal Affinity Resin for 2 hours at 4° C. Precleared cell lysates were then treated with 5 μg purified GST- or His-fusion proteins and incubated overnight at 4° C. with gentle shaking. Following addition of GST or TALON Metal Affinity Resin and 2 hours of incubation, the pelleted (3,000×g; 10 minutes) resin was washed several times with PBS, and the remaining proteins were eluted using 1× Laemmli sample buffer. Western blotting was performed as described above.

[3] = biological target: T2, phosphorylated Smad3 (pSmad3) (UniProt Q8BUN5 2-425, phosphorylated (sites not given)); assay: His pull-down from AKR-2B lysate, Western blot
T2 construct: Endogenous protein from AKR-2B cell lysate, detected by Western blot with a phospho-Smad3 specific antibody; also called phosphorylated (p) Smad3

[4] = biological target: T2, phosphorylated Smad3 (pSmad3); assay: GST pull-down from AKR-2B lysate, Western blot
Protocol: as §1, §2

T2 sequence (Q8BUN5 2-425 limits assumed): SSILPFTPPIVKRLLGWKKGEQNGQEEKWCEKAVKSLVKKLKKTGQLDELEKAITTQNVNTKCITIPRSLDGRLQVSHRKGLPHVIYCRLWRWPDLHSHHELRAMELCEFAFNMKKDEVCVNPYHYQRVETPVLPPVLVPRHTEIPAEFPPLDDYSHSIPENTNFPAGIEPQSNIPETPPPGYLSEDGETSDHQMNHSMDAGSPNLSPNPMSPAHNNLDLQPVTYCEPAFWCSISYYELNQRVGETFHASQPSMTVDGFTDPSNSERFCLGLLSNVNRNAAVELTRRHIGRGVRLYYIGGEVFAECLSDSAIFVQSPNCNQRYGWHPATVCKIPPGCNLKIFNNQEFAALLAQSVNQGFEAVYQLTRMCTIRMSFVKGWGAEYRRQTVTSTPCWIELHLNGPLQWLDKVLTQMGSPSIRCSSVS

Binder	binding result [2]	further results
B1		binding result [1]: no binding
GST fusion of the first 74 amino acids of SNX9 encoding the SH3 domain (other, UniProt Q9Y5X1 1-74, looked up, range 1-74; also called SH3 domain of sorting nexin 9; SNX9 SH3 domain; not shown: glutathione S-transferase (GST) tag) MATKARVMYDFAAEPGNNELTVNEGEIITITNPDVGGGWLEGRNIKGERGLVPTDYVEILPSDGKDQFSCGNSV	no binding	
TVNEGEIITITNPDVVVVWLEGRNIKGERGL (designed binder, range 21-51; Mutant of TAT-SH3-2; also called Control peptide; not shown: His tag, cell penetrating TAT polypeptide from HIV and HA tag) [TAT-SH3-2M (TAT-SH3-2 with G to V mutations at amino acids 36-38)]		binding result [3]: no binding
GST fusion of the amino half of SNX9 (SH3 and low complexity (LC) domains) (other, UniProt Q9Y5X1 1-203, looked up, domain: SH3 and low complexity (LC) domains; also called amino terminal peptide; not shown: glutathione S-transferase (GST) tag) MATKARVMYDFAAEPGNNELTVNEGEIITITNPDVGGGWLEGRNIKGERGLVPTDYVEILPSDGKDQFSCGNSVADQAFLDSLSASTAQASSSAASNNHQVGSGNDPWSAWSASKSGNWESSEGWGAQPEGAGAQRNTNTPNNWDTAFGHPQAYQGPATGDDDDWDEDWDGPKSSSYFKDSESADAGGAQRGNSRASSSSMKI	no binding	
GST fusion of the carboxyl half of SNX9 (Phox and BAR domains) (other, UniProt Q9Y5X1 204-595, looked up, domain: Phox and BAR domains; not shown: glutathione S-transferase (GST) tag) PLNKFPGFAKPGTEQYLLAKQLAKPKEKIPIIVGDYGPMWVYPTSTFDCVVADPRKGSKMYGLKSYIEYQLTPTNTNRSVNHRYKHFDWLYERLLVKFGSAIPIPSLPDKQVTGRFEEEFIKMRMERLQAWMTRMCRHPVISESEVFQQFLNFRDEKEWKTGKRKAERDELAGVMIFSTMEPEAPDLDLVEIEQKCEAVGKFTKAMDDGVKELLTVGQEHWKRCTGPLPKEYQKIGKALQSLATVFSSSGYQGETDLNDAITEAGKTYEEIASLVAEQPKKDLHFLMECNHEYKGFLGCFPDIIGTHKGAIEKVKESDKLVATSKITLQDKQNMVKRVSIMSYALQAEMNHFHSNRIYDYNSVIRLYLEQQVQFYETIAEKLRQALSRFPVM	no binding	binding result [4]: no binding
GST fusion of the LC (low complexity) domain of SNX9 (other, UniProt Q9Y5X1 63-203, looked up, domain: LC domain; It overlaps the 1-74 fragment; also called LC domain; not shown: glutathione S-transferase (GST) tag) DGKDQFSCGNSVADQAFLDSLSASTAQASSSAASNNHQVGSGNDPWSAWSASKSGNWESSEGWGAQPEGAGAQRNTNTPNNWDTAFGHPQAYQGPATGDDDDWDEDWDGPKSSSYFKDSESADAGGAQRGNSRASSSSMKI	no binding	

From patent US20170253873A1 (MAYO FOUNDATION FOR MEDICAL EDUCATION AND RESEARCH, published 2017)
